Test results from paper PMC4434323.

molecular target: gei-3 (T22H6.6) (Caenorhabditis elegans) (UniProt Q0G833)
Sequence (Q0G833 entry or part of it): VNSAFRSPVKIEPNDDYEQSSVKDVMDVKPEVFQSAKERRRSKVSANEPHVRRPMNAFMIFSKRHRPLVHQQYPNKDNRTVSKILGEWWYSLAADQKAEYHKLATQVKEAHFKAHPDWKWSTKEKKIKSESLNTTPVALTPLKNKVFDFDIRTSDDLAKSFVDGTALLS

Compared with “AAATGAAT (double strand) [8-mer AAATGAAT]”, “AATGAATG (double strand) [8-mer AATGAATG]” is higher in binding signal (PBM E-score (-0.5 to 0.5)): 0.472 for the first, 0.481 for the second.

Compared with “ATCAATGA (double strand) [8-mer ATCAATGA]”, “ATCAATGG (double strand) [8-mer ATCAATGG]” is lower in binding signal (PBM E-score (-0.5 to 0.5)): 0.485 for the first, 0.477 for the second.

“ATGAATGA (double strand) [8-mer ATGAATGA]” and “ATGAATGG (double strand) [8-mer ATGAATGG]” are the same in binding signal (PBM E-score (-0.5 to 0.5)): 0.489 for the first, 0.489 for the second.

Compared with “CATTCATA (double strand) [8-mer CATTCATA]”, “CATTGATA (double strand) [8-mer CATTGATA]” is lower in binding signal (PBM E-score (-0.5 to 0.5)): 0.474 for the first, 0.472 for the second.

Going from “CCCATTCA (double strand) [8-mer CCCATTCA]” to “TCAATGAA (double strand) [8-mer TCAATGAA]”, the binding signal (PBM E-score (-0.5 to 0.5)) rises from 0.478 to 0.485.

Compared with “TCAATGGA (double strand) [8-mer TCAATGGA]”, “TCAATTGA (double strand) [8-mer TCAATTGA]” is higher in binding signal (PBM E-score (-0.5 to 0.5)): 0.473 for the first, 0.484 for the second.

First: TCCATTCA (double strand) [8-mer TCCATTCA]
Second: TGAATGAA (double strand) [8-mer TGAATGAA]
The binding signal (PBM E-score (-0.5 to 0.5)) of the first is lower: 0.48 for the first, 0.491 for the second.

In the case of “TGAATTAA (double strand) [8-mer TGAATTAA]”, the binding signal (PBM E-score (-0.5 to 0.5)) is reported as 0.474.

molecular target: T1, hlh-12 (C28C12.8) (Caenorhabditis elegans) (UniProt Q18277)
T1 sequence: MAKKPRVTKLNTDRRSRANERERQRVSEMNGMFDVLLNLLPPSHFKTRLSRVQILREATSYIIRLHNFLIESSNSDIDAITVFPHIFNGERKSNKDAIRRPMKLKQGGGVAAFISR

Going from “AACAGATG (double strand) [8-mer AACAGATG]” to “AACAGCTG (double strand) [8-mer AACAGCTG]”, the binding signal (PBM E-score (-0.5 to 0.5)) rises from 0.468 to 0.481.

Compared with “AACATATG (double strand) [8-mer AACATATG]”, “AACATCTG (double strand) [8-mer AACATCTG]” is higher in binding signal (PBM E-score (-0.5 to 0.5)): 0.465 for the first, 0.481 for the second.

“ACAGATGG (double strand) [8-mer ACAGATGG]” and “ACAGATGT (double strand) [8-mer ACAGATGT]” are the same in binding signal (PBM E-score (-0.5 to 0.5)): 0.478 for the first, 0.478 for the second.

First: ACAGCTGG (double strand) [8-mer ACAGCTGG]
Second: ACAGCTGT (double strand) [8-mer ACAGCTGT]
The binding signal (PBM E-score (-0.5 to 0.5)) of the first is lower: 0.481 for the first, 0.496 for the second.

Going from “ACATATGT (double strand) [8-mer ACATATGT]” to “ACATCTGG (double strand) [8-mer ACATCTGG]”, the binding signal (PBM E-score (-0.5 to 0.5)) rises from 0.476 to 0.481.

Going from “ACCAGCTG (double strand) [8-mer ACCAGCTG]” to “ACCATCTG (double strand) [8-mer ACCATCTG]”, the binding signal (PBM E-score (-0.5 to 0.5)) rises from 0.456 to 0.482.

Compared with “CACAGCTG (double strand) [8-mer CACAGCTG]”, “CAGCTGTC (double strand) [8-mer CAGCTGTC]” is higher in binding signal (PBM E-score (-0.5 to 0.5)): 0.475 for the first, 0.479 for the second.

molecular target: T2, mbr-1 (T01C1.2) (Caenorhabditis elegans) (UniProt G5EGQ5)
T2 sequence: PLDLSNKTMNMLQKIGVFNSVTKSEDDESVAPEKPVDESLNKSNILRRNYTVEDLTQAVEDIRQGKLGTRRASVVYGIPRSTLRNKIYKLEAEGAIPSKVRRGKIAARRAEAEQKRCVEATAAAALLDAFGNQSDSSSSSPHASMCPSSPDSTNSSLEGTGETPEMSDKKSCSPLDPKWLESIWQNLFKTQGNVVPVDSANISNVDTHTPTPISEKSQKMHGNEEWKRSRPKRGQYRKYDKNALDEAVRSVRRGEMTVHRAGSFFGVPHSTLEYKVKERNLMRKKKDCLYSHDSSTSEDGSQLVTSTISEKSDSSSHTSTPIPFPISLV

Compared with “GAGGGGCC (double strand) [8-mer GAGGGGCC]”, “GCCCCCCA (double strand) [8-mer GCCCCCCA]” is lower in binding signal (PBM E-score (-0.5 to 0.5)): 0.489 for the first, 0.487 for the second.

First: GGCCCCCC (double strand) [8-mer GGCCCCCC]
Second: GGGGCCAA (double strand) [8-mer GGGGCCAA]
The binding signal (PBM E-score (-0.5 to 0.5)) of the first is higher: 0.498 for the first, 0.488 for the second.

Going from “GGGGCCTA (double strand) [8-mer GGGGCCTA]” to “GGGGGCCA (double strand) [8-mer GGGGGCCA]”, the binding signal (PBM E-score (-0.5 to 0.5)) rises from 0.487 to 0.495.

molecular target: T3, skn-1 (T19E7.2) (Caenorhabditis elegans) (UniProt P34707)
T3 sequence: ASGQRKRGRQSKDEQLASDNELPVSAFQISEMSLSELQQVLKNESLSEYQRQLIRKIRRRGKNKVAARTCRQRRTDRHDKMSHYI

Compared with “AATGTCAT (double strand) [8-mer AATGTCAT]”, “AGGATGAC (double strand) [8-mer AGGATGAC]” is higher in binding signal (PBM E-score (-0.5 to 0.5)): 0.487 for the first, 0.489 for the second.

First: AGTCATCA (double strand) [8-mer AGTCATCA]
Second: ATATCATC (double strand) [8-mer ATATCATC]
The binding signal (PBM E-score (-0.5 to 0.5)) of the first is higher: 0.491 for the first, 0.485 for the second.

First: ATGACAAA (double strand) [8-mer ATGACAAA]
Second: ATGACAAT (double strand) [8-mer ATGACAAT]
The binding signal (PBM E-score (-0.5 to 0.5)) of the first is lower: 0.493 for the first, 0.495 for the second.

First: ATGATGAC (double strand) [8-mer ATGATGAC]
Second: ATGTCATC (double strand) [8-mer ATGTCATC]
The binding signal (PBM E-score (-0.5 to 0.5)) of the first is higher: 0.497 for the first, 0.494 for the second.

Compared with “GATGACAA (double strand) [8-mer GATGACAA]”, “GATGACTA (double strand) [8-mer GATGACTA]” is lower in binding signal (PBM E-score (-0.5 to 0.5)): 0.498 for the first, 0.489 for the second.

Going from “GATGATAA (double strand) [8-mer GATGATAA]” to “GGATGACA (double strand) [8-mer GGATGACA]”, the binding signal (PBM E-score (-0.5 to 0.5)) rises from 0.488 to 0.489.

First: GTCATCAC (double strand) [8-mer GTCATCAC]
Second: TGATGACA (double strand) [8-mer TGATGACA]
The binding signal (PBM E-score (-0.5 to 0.5)) of the first is lower: 0.492 for the first, 0.495 for the second.

molecular target: T4, tbx-38 (C24H11.3) (Caenorhabditis elegans) (UniProt Q9XVD5)
T4 sequence: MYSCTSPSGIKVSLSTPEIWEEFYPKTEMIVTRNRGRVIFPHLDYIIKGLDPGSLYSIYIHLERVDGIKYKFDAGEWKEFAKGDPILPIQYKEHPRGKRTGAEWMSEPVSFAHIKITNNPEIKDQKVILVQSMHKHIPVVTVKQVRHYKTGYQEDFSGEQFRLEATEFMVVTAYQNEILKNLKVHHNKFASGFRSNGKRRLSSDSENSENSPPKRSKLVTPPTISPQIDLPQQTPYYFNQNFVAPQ

Going from “AAGTGTGA (double strand) [8-mer AAGTGTGA]” to “AGGTGCGA (double strand) [8-mer AGGTGCGA]”, the binding signal (PBM E-score (-0.5 to 0.5)) falls from 0.494 to 0.49.

Going from “AGGTGTGA (double strand) [8-mer AGGTGTGA]” to “AGGTGTTA (double strand) [8-mer AGGTGTTA]”, the binding signal (PBM E-score (-0.5 to 0.5)) falls from 0.498 to 0.494.

First: AGTGTGAA (double strand) [8-mer AGTGTGAA]
Second: ATTCACAC (double strand) [8-mer ATTCACAC]
The binding signal (PBM E-score (-0.5 to 0.5)) of the first is higher: 0.496 for the first, 0.494 for the second.

Going from “ATTCGCAC (double strand) [8-mer ATTCGCAC]” to “GAGTGTGA (double strand) [8-mer GAGTGTGA]”, the binding signal (PBM E-score (-0.5 to 0.5)) falls from 0.489 to 0.484.

Compared with “GGGTGCGA (double strand) [8-mer GGGTGCGA]”, “GGGTGTGA (double strand) [8-mer GGGTGTGA]” is higher in binding signal (PBM E-score (-0.5 to 0.5)): 0.485 for the first, 0.487 for the second.

Compared with “GGTGCGAA (double strand) [8-mer GGTGCGAA]”, “GGTGTGAA (double strand) [8-mer GGTGTGAA]” is higher in binding signal (PBM E-score (-0.5 to 0.5)): 0.494 for the first, 0.497 for the second.

Compared with “GTGTGAAA (double strand) [8-mer GTGTGAAA]”, “GTGTGAAC (double strand) [8-mer GTGTGAAC]” is higher in binding signal (PBM E-score (-0.5 to 0.5)): 0.483 for the first, 0.492 for the second.

molecular target: T5, tbx-39 (Y73F8A.16) (Caenorhabditis elegans) (UniProt Q9NA56)
T5 sequence: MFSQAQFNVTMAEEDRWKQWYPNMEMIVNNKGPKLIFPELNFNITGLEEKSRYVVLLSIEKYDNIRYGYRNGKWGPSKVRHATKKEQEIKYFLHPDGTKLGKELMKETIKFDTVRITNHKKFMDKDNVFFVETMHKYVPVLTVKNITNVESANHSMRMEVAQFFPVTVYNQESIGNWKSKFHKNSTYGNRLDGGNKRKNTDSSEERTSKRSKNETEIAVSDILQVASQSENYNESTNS

First: AAACTTGG (double strand) [8-mer AAACTTGG]
Second: AACTTAGC (double strand) [8-mer AACTTAGC]
The binding signal (PBM E-score (-0.5 to 0.5)) of the first is lower: 0.487 for the first, 0.493 for the second.

Compared with “AACTTAGT (double strand) [8-mer AACTTAGT]”, “AACTTCGC (double strand) [8-mer AACTTCGC]” is lower in binding signal (PBM E-score (-0.5 to 0.5)): 0.479 for the first, 0.467 for the second.

First: AACTTGGA (double strand) [8-mer AACTTGGA]
Second: AACTTGGC (double strand) [8-mer AACTTGGC]
The binding signal (PBM E-score (-0.5 to 0.5)) of the first is lower: 0.473 for the first, 0.497 for the second.

Compared with “AACTTGGT (double strand) [8-mer AACTTGGT]”, “ACTTGGCA (double strand) [8-mer ACTTGGCA]” is lower in binding signal (PBM E-score (-0.5 to 0.5)): 0.496 for the first, 0.492 for the second.

molecular target: T6, tbx-43 (Y46E12A.4) (Caenorhabditis elegans) (UniProt Q1T6W8)
T6 sequence: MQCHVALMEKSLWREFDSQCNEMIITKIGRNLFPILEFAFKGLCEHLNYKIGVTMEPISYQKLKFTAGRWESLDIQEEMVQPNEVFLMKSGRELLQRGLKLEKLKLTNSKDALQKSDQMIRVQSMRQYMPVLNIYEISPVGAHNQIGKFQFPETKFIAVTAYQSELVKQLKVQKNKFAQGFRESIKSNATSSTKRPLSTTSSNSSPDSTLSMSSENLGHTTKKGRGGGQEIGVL

Compared with “AGGTGCGA (double strand) [8-mer AGGTGCGA]”, “AGGTGTCA (double strand) [8-mer AGGTGTCA]” is higher in binding signal (PBM E-score (-0.5 to 0.5)): 0.48 for the first, 0.497 for the second.

Going from “AGGTGTGA (double strand) [8-mer AGGTGTGA]” to “AGGTGTTA (double strand) [8-mer AGGTGTTA]”, the binding signal (PBM E-score (-0.5 to 0.5)) falls from 0.499 to 0.497.

Going from “AGTGTGAA (double strand) [8-mer AGTGTGAA]” to “ATCACACC (double strand) [8-mer ATCACACC]”, the binding signal (PBM E-score (-0.5 to 0.5)) falls from 0.494 to 0.486.

Compared with “ATTCACAC (double strand) [8-mer ATTCACAC]”, “GGGTGTCA (double strand) [8-mer GGGTGTCA]” is lower in binding signal (PBM E-score (-0.5 to 0.5)): 0.489 for the first, 0.484 for the second.

Compared with “GGGTGTGA (double strand) [8-mer GGGTGTGA]”, “GGTGCGAA (double strand) [8-mer GGTGCGAA]” is lower in binding signal (PBM E-score (-0.5 to 0.5)): 0.49 for the first, 0.48 for the second.

Compared with “GGTGTCAA (double strand) [8-mer GGTGTCAA]”, “GGTGTGAA (double strand) [8-mer GGTGTGAA]” is higher in binding signal (PBM E-score (-0.5 to 0.5)): 0.495 for the first, 0.499 for the second.

First: GTGTGAAA (double strand) [8-mer GTGTGAAA]
Second: GTGTGAAC (double strand) [8-mer GTGTGAAC]
The binding signal (PBM E-score (-0.5 to 0.5)) of the first is higher: 0.494 for the first, 0.485 for the second.
